# Source: IntAct's records for PubMed 31515488
# B1: U3 small nucleolar RNA-associated protein 25 homolog (Homo sapiens), Q68CQ4 (parent)
# chain: MGKRGSRSQSQLLNTLTKKQKKHLRDFGEEHPFYDRVSRKEAKPQICQLSESSDSSDSESDSESEPQQVSGYHRLLATLKNVSEEEEEDEEEEEEEDSIVDDAEMNDEDGGSDVSVEEEMAAESTESPENVALSADPEGKEDGEEPPGTSQTSPEEFTDAKHESLFSLETNFLEEESGDNSSLKASQDPFLQHVNKELKEKAIQAVATNPKTTHELKWPILGQLFFSSKFQKLETFKPPKDIDLKSLHLQKPLESTWTKTNSQFLSGPQKSSSPFTPLQKELFLIMNSYRDLFYPERTALKNGEEIRHVYCLHVINHILKANAQVLGNNSRRRSQKFGVGDDDDFRDQGLTRPKVLIVVPFREAALRVVQLFISLLEGDSKKKIIVSNKKRFQGEYGSDPEERPPNLKRPEDYEAVFVGNIDDHFRIGVAILQRSIRLYAPFYSSDILIASPLGLRTIIGGEGEKKRDFDFLSSIELLIIDQADIYLMQNWEHVLHLMNHMNLLPLDSHGVDFSRVRMWSLNNWSKYYRQTLLFGALQDAQINSVFNKYCVNMQGQVAVRNVPMTGSISHVLVQLPHVFQRMEAENLASVIDARFNFFVNKILPQYRDAVMSHTLIYIPSYFDFVRLRNYFKKEELNFTHICEYTQKSGVSRARHFFLQGEKQFLLFTERFHFYKRYTIKGIRNLIFYELPTYPHFYSEICNMLRATNRGEEATWTCTVLYSKYDAQRLAAVVGVERAAQMLQSNKNVHLFITGEK
# B2: Protein FAM9B (Homo sapiens), Q8IZU0 (parent)
# chain: MAAWGKKHAGKDPVRDECEERNRFTETREEDVTDEHGEREPFAETDEHTGANTKKPEDTAEDLTAKRKRMKMDKTCSKTKNKSKHALRKKQLKRQKRDYIHSLKLLNVLEEYITDEQKEEEEEEGEEEELIRIFQEQQKKWQQYRSVRRERLKEMKLLRDQFVKALEDFEDLCDRVFSDEDSELDN
# partner: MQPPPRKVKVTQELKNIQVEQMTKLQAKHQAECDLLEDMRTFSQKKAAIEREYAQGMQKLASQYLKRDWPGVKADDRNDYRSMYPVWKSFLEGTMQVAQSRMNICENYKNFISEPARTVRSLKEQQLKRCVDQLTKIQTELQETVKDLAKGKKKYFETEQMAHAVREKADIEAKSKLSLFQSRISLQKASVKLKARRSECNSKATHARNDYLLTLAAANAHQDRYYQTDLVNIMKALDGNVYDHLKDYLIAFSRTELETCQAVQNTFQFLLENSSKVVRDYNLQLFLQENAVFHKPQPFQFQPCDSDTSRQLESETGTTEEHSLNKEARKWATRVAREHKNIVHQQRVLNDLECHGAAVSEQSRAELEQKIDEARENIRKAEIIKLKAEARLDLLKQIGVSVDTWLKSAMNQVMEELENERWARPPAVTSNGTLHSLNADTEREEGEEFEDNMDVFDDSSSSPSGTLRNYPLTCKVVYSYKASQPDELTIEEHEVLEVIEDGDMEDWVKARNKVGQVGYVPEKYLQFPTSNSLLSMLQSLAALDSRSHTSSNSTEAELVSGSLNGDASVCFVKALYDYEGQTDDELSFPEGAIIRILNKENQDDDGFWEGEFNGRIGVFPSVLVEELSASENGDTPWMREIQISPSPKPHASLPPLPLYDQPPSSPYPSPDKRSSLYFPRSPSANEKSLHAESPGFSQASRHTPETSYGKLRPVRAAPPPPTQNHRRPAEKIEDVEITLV
# B3: NIF3-like protein 1 (Homo sapiens), Q9GZT8 (parent)
# chain: MLSSCVRPVPTTVRFVDSLICNSSRSFMDLKALLSSLNDFASLSFAESWDNVGLLVEPSPPHTVNTLFLTNDLTEEVMEEVLQKKADLILSYHPPIFRPMKRITWNTWKERLVIRALENRVGIYSPHTAYDAAPQGVNNWLAKGLGACTSRPIHPSKAPNYPTEGNHRVEFNVNYTQDLDKVMSAVKGIDGVSVTSFSARTGNEEQTRINLNCTQKALMQVVDFLSRNKQLYQKTEILSLEKPLLLHTGMGRLCTLDESVSLATMIDRIKRHLKLSHIRLALGVGRTLESQVKVVALCAGSGSSVLQGVEADLYLTGEMSHHDTLDAASQGINVILCEHSNTERGFLSDLRDMLDSHLENKINIILSETDRDPLQVV
# partner: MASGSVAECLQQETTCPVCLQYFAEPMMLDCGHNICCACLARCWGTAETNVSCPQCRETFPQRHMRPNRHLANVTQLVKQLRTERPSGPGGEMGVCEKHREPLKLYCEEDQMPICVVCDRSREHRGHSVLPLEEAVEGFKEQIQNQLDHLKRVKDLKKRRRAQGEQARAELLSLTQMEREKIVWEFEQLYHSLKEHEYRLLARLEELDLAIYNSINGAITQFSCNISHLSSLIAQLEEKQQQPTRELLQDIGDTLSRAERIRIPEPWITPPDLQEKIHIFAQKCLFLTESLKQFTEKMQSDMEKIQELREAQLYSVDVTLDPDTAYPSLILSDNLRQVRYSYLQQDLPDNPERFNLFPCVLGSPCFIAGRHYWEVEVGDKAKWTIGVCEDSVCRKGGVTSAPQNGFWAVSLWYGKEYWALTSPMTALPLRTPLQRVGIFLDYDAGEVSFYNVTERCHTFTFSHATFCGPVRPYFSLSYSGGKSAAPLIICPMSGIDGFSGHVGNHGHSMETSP
# B4: Cytochrome P450 4F12 (Homo sapiens), Q9HCS2 (parent)
# chain: MSLLSLPWLGLRPVATSPWLLLLLVVGSWLLARILAWTYAFYNNCRRLQCFPQPPKRNWFWGHLGLITPTEEGLKNSTQMSATYSQGFTVWLGPIIPFIVLCHPDTIRSITNASAAIAPKDNLFIRFLKPWLGEGILLSGGDKWSRHRRMLTPAFHFNILKSYITIFNKSANIMLDKWQHLASEGSSRLDMFEHISLMTLDSLQKCIFSFDSHCQERPSEYIATILELSALVEKRSQHILQHMDFLYYLSHDGRRFHRACRLVHDFTDAVIRERRRTLPTQGIDDFFKDKAKSKTLDFIDVLLLSKDEDGKALSDEDIRAEADTFMFGGHDTTASGLSWVLYNLARHPEYQERCRQEVQELLKDRDPKEIEWDDLAQLPFLTMCVKESLRLHPPAPFISRCCTQDIVLPDGRVIPKGITCLIDIIGVHHNPTVWPDPEVYDPFRFDPENSKGRSPLAFIPFSAGPRNCIGQAFAMAEMKVVLALMLLHFRFLPDHTEPRRKLELIMRAEGGLWLRVEPLNVSLQ
# partner: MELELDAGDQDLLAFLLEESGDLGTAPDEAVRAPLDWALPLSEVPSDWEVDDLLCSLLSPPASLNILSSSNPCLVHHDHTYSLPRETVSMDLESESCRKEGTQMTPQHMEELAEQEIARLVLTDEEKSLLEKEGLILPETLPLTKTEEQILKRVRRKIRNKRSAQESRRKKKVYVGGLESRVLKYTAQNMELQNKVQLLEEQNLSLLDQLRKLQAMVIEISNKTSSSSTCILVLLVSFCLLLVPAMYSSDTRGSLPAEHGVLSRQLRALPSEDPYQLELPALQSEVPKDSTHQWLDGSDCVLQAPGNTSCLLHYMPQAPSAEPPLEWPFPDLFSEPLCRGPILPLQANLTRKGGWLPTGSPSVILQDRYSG
# B5: Forkhead box protein P3 (Homo sapiens), Q9BZS1 (parent)
# chain: MPNPRPGKPSAPSLALGPSPGASPSWRAAPKASDLLGARGPGGTFQGRDLRGGAHASSSSLNPMPPSQLQLPTLPLVMVAPSGARLGPLPHLQALLQDRPHFMHQLSTVDAHARTPVLQVHPLESPAMISLTPPTTATGVFSLKARPGLPPGINVASLEWVSREPALLCTFPNPSAPRKDSTLSAVPQSSYPLLANGVCKWPGCEKVFEEPEDFLKHCQADHLLDEKGRAQCLLQREMVQSLEQQLVLEKEKLSAMQAHLAGKMALTKASSVASSDKGSCCIVAAGSQGPVVPAWSGPREAPDSLFAVRRHLWGSHGNSTFPEFLHNMDYFKFHNMRPPFTYATLIRWAILEAPEKQRTLNEIYHWFTRMFAFFRNHPATWKNAIRHNLSLHKCFVRVESEKGAVWTVDELEFRKKRSQRPSRCSNPTPGP
# Variants of: B1
# Conditions: with rufy1_human RUFY1, Q96T51
# Chain of rufy1_human RUFY1, Q96T51 (Q96T51 whole entry): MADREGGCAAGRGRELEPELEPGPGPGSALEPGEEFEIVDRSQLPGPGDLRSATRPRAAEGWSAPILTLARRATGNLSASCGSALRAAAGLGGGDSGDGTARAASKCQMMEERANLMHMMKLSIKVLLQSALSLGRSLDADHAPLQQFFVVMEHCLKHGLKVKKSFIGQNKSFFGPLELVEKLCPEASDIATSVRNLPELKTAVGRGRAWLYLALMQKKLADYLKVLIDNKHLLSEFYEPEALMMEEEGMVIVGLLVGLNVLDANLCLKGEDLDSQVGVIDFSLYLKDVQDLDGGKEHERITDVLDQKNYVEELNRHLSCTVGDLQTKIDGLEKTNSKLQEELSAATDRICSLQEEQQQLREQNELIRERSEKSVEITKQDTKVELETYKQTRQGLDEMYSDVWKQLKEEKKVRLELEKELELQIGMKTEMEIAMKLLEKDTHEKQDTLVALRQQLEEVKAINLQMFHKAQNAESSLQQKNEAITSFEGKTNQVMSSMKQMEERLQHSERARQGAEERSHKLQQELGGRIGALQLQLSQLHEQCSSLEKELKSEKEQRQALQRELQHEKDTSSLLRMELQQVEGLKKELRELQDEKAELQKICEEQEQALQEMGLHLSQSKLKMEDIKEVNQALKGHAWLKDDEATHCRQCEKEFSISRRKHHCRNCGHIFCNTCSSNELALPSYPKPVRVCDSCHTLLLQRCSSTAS
row,Variant,effect of a mutation on the interaction
1,G111D,with no effect

# Variants of: B1
# Conditions: with cep70_human CEP70, Q8NHQ1
# Chain of cep70_human CEP70, Q8NHQ1 (Q8NHQ1 whole entry): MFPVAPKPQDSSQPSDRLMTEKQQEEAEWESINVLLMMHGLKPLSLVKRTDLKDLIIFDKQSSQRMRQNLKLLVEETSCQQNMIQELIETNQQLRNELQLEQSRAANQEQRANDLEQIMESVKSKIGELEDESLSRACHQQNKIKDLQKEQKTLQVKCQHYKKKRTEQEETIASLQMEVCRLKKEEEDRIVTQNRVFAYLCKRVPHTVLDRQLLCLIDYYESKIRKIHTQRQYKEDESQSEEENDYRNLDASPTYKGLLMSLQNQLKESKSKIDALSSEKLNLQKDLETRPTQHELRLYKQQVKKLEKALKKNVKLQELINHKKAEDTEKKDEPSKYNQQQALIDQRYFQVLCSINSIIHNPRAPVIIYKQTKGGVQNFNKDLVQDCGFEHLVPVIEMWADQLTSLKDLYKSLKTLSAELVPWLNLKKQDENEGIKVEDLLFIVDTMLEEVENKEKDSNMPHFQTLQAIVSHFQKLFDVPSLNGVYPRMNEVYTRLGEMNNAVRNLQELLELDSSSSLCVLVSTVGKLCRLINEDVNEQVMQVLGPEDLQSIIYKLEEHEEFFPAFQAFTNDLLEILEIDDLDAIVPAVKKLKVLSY
row,Variant,effect of a mutation on the interaction
1,G111D,with no effect

# Variants of: B1
# Conditions: with trim1_human MID2, Q9UJV3
# Chain of trim1_human MID2, Q9UJV3 (Q9UJV3 whole entry): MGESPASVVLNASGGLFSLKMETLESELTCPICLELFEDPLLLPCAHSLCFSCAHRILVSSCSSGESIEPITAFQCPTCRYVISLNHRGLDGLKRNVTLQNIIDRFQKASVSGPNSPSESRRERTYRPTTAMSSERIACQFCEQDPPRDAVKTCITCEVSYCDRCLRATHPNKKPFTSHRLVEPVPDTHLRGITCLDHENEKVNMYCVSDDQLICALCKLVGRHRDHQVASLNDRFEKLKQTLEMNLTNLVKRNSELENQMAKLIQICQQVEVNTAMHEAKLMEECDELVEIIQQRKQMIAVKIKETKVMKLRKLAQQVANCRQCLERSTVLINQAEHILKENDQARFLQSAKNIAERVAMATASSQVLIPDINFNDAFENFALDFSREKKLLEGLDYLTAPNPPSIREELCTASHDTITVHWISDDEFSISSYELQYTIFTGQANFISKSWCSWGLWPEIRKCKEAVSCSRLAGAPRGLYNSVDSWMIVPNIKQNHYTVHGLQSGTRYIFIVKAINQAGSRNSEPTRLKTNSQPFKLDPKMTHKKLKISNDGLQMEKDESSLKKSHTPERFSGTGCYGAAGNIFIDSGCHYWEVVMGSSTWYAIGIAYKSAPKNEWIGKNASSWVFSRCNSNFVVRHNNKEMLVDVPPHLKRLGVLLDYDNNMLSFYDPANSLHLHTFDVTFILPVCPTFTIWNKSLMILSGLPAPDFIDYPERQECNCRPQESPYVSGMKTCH
row,Variant,effect of a mutation on the interaction
1,G111D,with no effect

# Variants of: B2
# Conditions: with fcsd2_human FCHSD2, O94868
row,Variant,effect of a mutation on the interaction
1,R23H,with no effect

# Variants of: B3
# Conditions: with tri27_human TRIM27, P14373
row,Variant,effect of a mutation on the interaction
1,MLSSCVRPVPTTVRFVDSLICNSSRSFMDLKALLSSLNDFASLSFAESWDNVGLLVEPSPPHTVNTLFLTNDLTEEVMEEVLQKKADLILSYHPPIFRPMKRITWNTWKERLVIRALENRVGIYSPHTAYDAAPQGVNNWLAKGLGACTSRPIHPSKAPNYPTEGNHRVEFNVNYTQDLDKVMSAVKGIDGVSVTSFSARTGNEEQTRINLNCTQKALMQVVDFLSRNKQLYQKTEILSLEKPLLLHTGMGRLCTLDESVSLATMIDRIKRHLKLSHIRLALGVGRTLESQVKVVALCAGSGSSVLQGVEADLYLTGEMSHHDILDAASQGINVILCEHSNTERGFLSDLRDMLDSHLENKINIILSETDRDPLQVV [T324I],disrupting interaction strength

# Variants of: B4
# Conditions: with creb3_human CREB3, O43889
row,Variant,effect of a mutation on the interaction
1,R254W,disrupting interaction strength
2,R272Q,with no effect

# Variants of: B5
# Conditions: with pr20e_human PRR20E
row,Variant,effect of a mutation on the interaction
1,MPNPRPGKPSAPSLALGPSPGASPSWRAAPKASDLLGARGPGGTFQGRDLRGGAHASSCSLNPMPPSQLQLPTLPLVMVAPSGARLGPLPHLQALLQDRPHFMHQLSTVDAHARTPVLQVHPLESPAMISLTPPTTATGVFSLKARPGLPPGINVASLEWVSREPALLCTFPNPSAPRKDSTLSAVPQSSYPLLANGVCKWPGCEKVFEEPEDFLKHCQADHLLDEKGRAQCLLQREMVQSLEQQLVLEKEKLSAMQAHLAGKMALTKASSVASSDKGSCCIVAAGSQGPVVPAWSGPREAPDSLFAVRRHLWGSHGNSTFPEFLHNMDYFKFHNMRPPFTYATLIRWAILEAPEKQRTLNEIYHWFTRMFAFFRNHPATWKNAIRHNLSLHKCFVRVESEKGAVWTVDELEFRKKRSQRPSRCSNPTPGP [S59C],with no effect

# Variants of: B5
# Conditions: with rbpms_human RBPMS
row,Variant,effect of a mutation on the interaction
1,MPNPRPGKPSAPSLALGPSPGASPSWRAAPKASDLLGARGPGGTFQGRDLRGGAHASSCSLNPMPPSQLQLPTLPLVMVAPSGARLGPLPHLQALLQDRPHFMHQLSTVDAHARTPVLQVHPLESPAMISLTPPTTATGVFSLKARPGLPPGINVASLEWVSREPALLCTFPNPSAPRKDSTLSAVPQSSYPLLANGVCKWPGCEKVFEEPEDFLKHCQADHLLDEKGRAQCLLQREMVQSLEQQLVLEKEKLSAMQAHLAGKMALTKASSVASSDKGSCCIVAAGSQGPVVPAWSGPREAPDSLFAVRRHLWGSHGNSTFPEFLHNMDYFKFHNMRPPFTYATLIRWAILEAPEKQRTLNEIYHWFTRMFAFFRNHPATWKNAIRHNLSLHKCFVRVESEKGAVWTVDELEFRKKRSQRPSRCSNPTPGP [S59C],with no effect
